Measurements taken from article PMC8546121 (Nature Communications, 2021).

B1: MACV MBP-Z fusion protein (full-length wild-type MACV Z protein) (natural protein)
chain: MGNCNKPPKRPPNTQTSAAQPSAEFRRTALPSLYGRYNCKCCWFADTNLITCNDHYLCLRCHQTMLRNSELCHICWKPLPTSITVPVEPSAPPP

What was measured:
[1] = target: MACV MBP-Z fusion protein (full-length wild-type MACV Z protein) (Machupo virus) (UniProt Q6IUF9); assay: […] (20 mM Tris-HCl pH 8.0, 500 mM NaCl, 2 mM DTT), […]
[2] = target: Machupo virus (MACV) L protein (Machupo virus, UniProt Q6IUF8 1-2209); assay: as above; details: both partners purified
Machupo virus (MACV) L protein, sequence (Q6IUF8 whole entry): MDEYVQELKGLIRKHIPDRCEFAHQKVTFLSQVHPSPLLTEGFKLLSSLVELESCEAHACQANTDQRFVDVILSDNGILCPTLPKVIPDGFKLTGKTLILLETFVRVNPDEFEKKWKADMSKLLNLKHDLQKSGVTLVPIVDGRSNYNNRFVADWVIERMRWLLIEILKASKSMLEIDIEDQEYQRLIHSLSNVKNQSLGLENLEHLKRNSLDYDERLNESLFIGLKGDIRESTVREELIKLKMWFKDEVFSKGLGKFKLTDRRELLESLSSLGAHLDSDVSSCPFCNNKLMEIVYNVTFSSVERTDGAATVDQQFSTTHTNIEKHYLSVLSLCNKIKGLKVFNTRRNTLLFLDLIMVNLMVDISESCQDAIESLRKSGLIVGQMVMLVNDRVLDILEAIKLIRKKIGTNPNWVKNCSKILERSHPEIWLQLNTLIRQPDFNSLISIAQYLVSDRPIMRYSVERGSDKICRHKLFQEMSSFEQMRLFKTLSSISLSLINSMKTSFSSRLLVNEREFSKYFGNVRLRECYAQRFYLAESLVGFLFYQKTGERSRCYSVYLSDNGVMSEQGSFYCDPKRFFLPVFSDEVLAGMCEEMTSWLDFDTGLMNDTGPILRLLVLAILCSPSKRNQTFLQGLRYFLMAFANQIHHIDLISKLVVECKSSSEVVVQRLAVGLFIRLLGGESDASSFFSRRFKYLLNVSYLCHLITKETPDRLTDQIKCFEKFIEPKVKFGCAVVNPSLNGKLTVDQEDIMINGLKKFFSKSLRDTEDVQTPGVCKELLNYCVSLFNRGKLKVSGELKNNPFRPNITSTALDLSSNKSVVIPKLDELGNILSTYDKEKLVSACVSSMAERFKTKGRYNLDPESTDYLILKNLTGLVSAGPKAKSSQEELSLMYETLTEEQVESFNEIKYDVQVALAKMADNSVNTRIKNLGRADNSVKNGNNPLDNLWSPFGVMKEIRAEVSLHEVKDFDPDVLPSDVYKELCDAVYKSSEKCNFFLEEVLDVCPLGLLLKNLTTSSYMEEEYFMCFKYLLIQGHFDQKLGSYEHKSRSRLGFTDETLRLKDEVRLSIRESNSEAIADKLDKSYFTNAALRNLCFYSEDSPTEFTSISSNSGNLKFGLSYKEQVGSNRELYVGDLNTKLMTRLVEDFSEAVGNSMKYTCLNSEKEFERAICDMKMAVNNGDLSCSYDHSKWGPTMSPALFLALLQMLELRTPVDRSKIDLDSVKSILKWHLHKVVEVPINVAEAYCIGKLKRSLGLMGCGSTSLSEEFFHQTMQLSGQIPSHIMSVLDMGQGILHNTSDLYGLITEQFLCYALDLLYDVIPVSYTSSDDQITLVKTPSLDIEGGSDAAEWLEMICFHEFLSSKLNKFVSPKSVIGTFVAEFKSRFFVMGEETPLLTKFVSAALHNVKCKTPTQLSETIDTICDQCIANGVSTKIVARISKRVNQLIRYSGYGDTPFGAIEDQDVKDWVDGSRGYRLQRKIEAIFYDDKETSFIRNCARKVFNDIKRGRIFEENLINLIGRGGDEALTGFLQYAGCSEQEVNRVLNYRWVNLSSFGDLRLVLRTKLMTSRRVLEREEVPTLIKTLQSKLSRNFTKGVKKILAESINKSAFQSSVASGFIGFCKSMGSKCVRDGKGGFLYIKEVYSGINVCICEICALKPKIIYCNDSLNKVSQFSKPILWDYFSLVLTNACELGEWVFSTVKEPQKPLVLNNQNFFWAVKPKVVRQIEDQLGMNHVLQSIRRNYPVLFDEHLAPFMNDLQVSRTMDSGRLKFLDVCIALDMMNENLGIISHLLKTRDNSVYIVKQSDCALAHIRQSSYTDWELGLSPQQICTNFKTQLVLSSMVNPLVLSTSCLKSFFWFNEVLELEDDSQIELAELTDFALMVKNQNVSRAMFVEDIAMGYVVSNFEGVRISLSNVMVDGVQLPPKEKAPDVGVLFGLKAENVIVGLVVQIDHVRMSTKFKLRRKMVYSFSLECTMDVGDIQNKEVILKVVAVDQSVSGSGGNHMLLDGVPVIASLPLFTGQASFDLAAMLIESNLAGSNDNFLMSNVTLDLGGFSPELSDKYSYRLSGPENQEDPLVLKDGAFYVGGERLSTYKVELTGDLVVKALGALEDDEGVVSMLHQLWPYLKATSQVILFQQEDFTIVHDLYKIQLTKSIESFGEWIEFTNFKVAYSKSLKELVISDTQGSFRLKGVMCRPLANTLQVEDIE

Molecule	stoichiometry N [1]	binding result [2]
Machupo virus (MACV) L protein, Q6IUF8 1-2209	1 Z:L	
B1		binds
